# Results from article PMC8041770 (2021).
# B1: yeast-displayed wild-type human LIFR CBM I–Ig-like domains (Gln45 to Gln337) [human] / recombinant human LIF, histidine-tagged (hLIF-His) [human] (parent complex)
# chain 1: QKKGAPHDLKCVTNNLQVWNCSWKAPSGTGRGTDYEVCIENRSRSCYQLEKTSIKIPALSHGDYEITINSLHDFGSSTSKFTLNEQNVSLIPDTPEILNLSADFSTSTLYLKWNDRGSVFPHRSNVIWEIKVLRKESMELVKLVTHNTTLNGKDTLHHWSWASDMPLECAIHFVEIRCYIDNLHFSGLEEWSDWSPVKNISWIPDSQTKVFPQDKVILVGSDITFCCVSQEKVLSALIGHTNCPLIHLDGENVAIKIRNISVSASSGTNVVFTTEDNIFGTVIFAGYPPDTPQ
# chain 2: not shown
# Variants of: B1
# Assay: flow cytometry of yeast-displayed LIFR variants; parent: 1; read off a plot
row,Variant,ratio to parent
1,"chain 1 I217V, chain 1 L218P, chain 1 N242D, chain 1 V262A, chain 1 T273I, chain 1 N277D",~6
2,"chain 1 L218P, chain 1 H240R, chain 1 N242D, chain 1 I257V, chain 1 I260V, chain 1 V262A, chain 1 T273I, chain 1 N277D",~13
3,"chain 1 L218P, chain 1 H240R, chain 1 I257V, chain 1 I260V, chain 1 V262A, chain 1 T273I, chain 1 N277D",~15
4,"chain 1 I217V, chain 1 L218P, chain 1 H240R, chain 1 N242D, chain 1 I257V, chain 1 I260V, chain 1 V262A, chain 1 T273I, chain 1 N277D",~13
5,"chain 1 L218P, chain 1 H240R, chain 1 I257V, chain 1 V262A, chain 1 T273I, chain 1 N277D",~12
6,"chain 1 I217V, chain 1 L218P, chain 1 N242D, chain 1 I257V, chain 1 I260V, chain 1 V262A, chain 1 T273I, chain 1 N277D",~12
7,"chain 1 L218P, chain 1 N242D, chain 1 I257V, chain 1 N277D",~6
